This note sets out measurements from patent publication US20040203016.

Where two headings read alike, the source gives them in different places.

Data set [1] concerns R recombinase. The settings on record: in vitro resolution between RS sites, recombinants.
Data set [2] relates to R recombinase. The data set is described as follows: cell_activity. The settings on record: in vivo resolution after 4 h in LB+IPTG (3% after 1 h).

In the case of RS site, the results for the activity in the data set on R recombinase [1] and in the data set on R recombinase [2] were 30% and 15%, respectively.
